The values below come from patent US6875594B2, “Methods of ligating expressed proteins” (The Rockefeller University, priority 1997, dated 2005).

Series [1] addresses T1, consolidated ligand NH2-PVpYENVG6>(PPAYPPPPVPKCONH2) (Homo sapiens, UniProt P00519, C100A/N120G/S121C).
T1 construct: intein-CBD (on the SH3 segment, removed on thioester formation) (C, cleaved yes); GST-SH3-IEGR (upstream of the SH2 segment, removed by thrombin and Factor Xa) (N, cleaved yes); made in house; host or cells: E. coli (BL21 for SH3-intein-CBD, DH5-α for the GST fusion that gives SH2)
Description: Fluorescence-based titration binding assay. The note with it: consolidated ligand binding both SH3 and SH2 domains; read-out: equilibration dissociation constant (Kd) for binding to the ligand. From the text:
Under these conditions, no protein precipitation was observed and NMR analysis indicated the sample had adopted a native fold. A similar strategy was therefore used to prepare the complete [SH2-^15N]SH(32) construct for functional and structural analysis. The binding affinity of Abl-[SH2^15N]SH(32) for the consolidated ligand, NH2-PVpYENVG6>(PPAYPPPPVPKCONH2) (SEQ ID NOs: 5 and 6, respectively), which binds both the SH3 and the SH2 domains simultaneously (78) was studied using a fluorescence-based titration assay. (The C-terminal glycyl residue is linked to the N ε of lysyl in the second peptide segment). […] This affinity is characteristic of the dual domain construct.
Fluorescence Binding Assay: The equilibrium dissociation constants of the protein constructs for the consolidated ligand were determined using the previously describedfluorescence-based titration assay (78). The binding constant for the segment labeled construct was 300 (±100) nM. Experiments were performed on a Spex Fluorolog-3 spectrophotometer fitted with a Neslab temperature control unit.

Series [2] deals with poly(glu,tyr). As to the kind of experiment: Csk kinase assay, transfer of 32P from γ-32P-ATP to poly(glu,tyr). Format: biochemical. Here is the method: In each of the two ligation reactions, the crude product mixture was nearly free of unligated material, although both preparations were contaminated with GroEL and DnaK. Although yields were not optimized, an estimated 0.5 mg of ligation product per 2.5 L bacterial cell culture was produced. […] Kinase assays were performed as described by Cole et al., J. Biol. Chem. 269, 30880 (1994) where transfer of ^32P from γ-^32P-ATP to poly(glu,tyr) was monitored. Briefly, poly(glu,tyr) reactions were carried out in 60 mM Tris-HCl, pH 7.4, 2 mM MnCl2, 10 mM dithiothreitol, 200 μg/mL BSA for 2 minutes at 30° C., quenched with EDTA, run out on 10% SDSPAGE and phosphopoly(glu,tyr) analyzed by scintillation counting. […] Further characterization of (Csk^PEP) and (Csk^pPEP) by electrospray mass spectrometry gave molecular masses in good agreement with the predicted values (FIG. 2C).

For series [3], the target named is T2, poly(glu,tyr) (Homo sapiens, UniProt P41240).
T2 construct: N-terminal methionine residue in the protein produced as an intein-CBD fusion was completely removed (no such cleavage is observed); Tyr unphosphorylated in Csk^PEP, phosphorylated in Csk^pPEP; made in house; host or cells: E. coli DH5α, co-expressed with GroES/GroEL
The note with it: wild type Csk, reference (32), cited from earlier work.

B1: Abl-[SH2^15N]SH(32): Ligated human Abl SH3-SH2 domain pair with G120 C121 mutations, only the SH2 domain 15N labeled (SEQ ID NO: 1) (protein)
chain: MLFVALYDFVASGDNTLSITKGEKLRVLGYNHNGEWAEAQTKNGQGWVPSNYITPVGCLEKHSWYHGPVSRNAAEYLLSSGINGSFLVRESESSPGQRSISLRYEGRVYHYRINTASDGKLYVSSESRFNTLAELVHHHSTVADGLITTLHYPAPKRGIHRD
modifications: 15N label on SH2 domain
In the case of B1, in series [1], the Kd came out at 0.3 µM.

B2: wild type Csk: Full-length wild-type human C-terminal Src kinase, 50 kDa protein (protein, UniProt P41240 1-450, looked up)
chain: MSAIQAAWPSGTECIAKYNFHGTAEQDLPFCKGDVLTIVAVTKDPNWYKAKNKVGREGIIPANYVQKREGVKAGTKLSLMPWFHGKITREQAERLLYPPETGLFLVRESTNYPGDYTLCVSCDGKVEHYRIMYHASKLSIDEEVYFENLMQLVEHYTSDADGLCTRLIKPKVMEGTVAAQDEFYRSGWALNMKELKLLQTIGKGEFGDVMLGDYRGNKVAVKCIKNDATAQAFLAEASVMTQLRHSNLVQLLGVIVEEKGGLYIVTEYMAKGSLVDYLRSRGRSVLGGDCLLKFSLDVCEAMEYLEGNNFVHRDLAARNVLVSEDNVAKVSDFGLTKEASSTQDTGKLPVKWTAPEALREKKFSTKSDVWSFGILLWEIYSFGRVPYPRIPLKDVVPRVEKGYKMDAPDGCPPAVYEVMKNCWHLDAAMRPSFLQLREQLEHIKTHELHL
modifications: full-length
notes: Full-length wild-type human C-terminal Src kinase, 50 kDa protein
By kcat is commonly meant the maximal rate divided by the concentration of active sites. As usually defined, the Km is the substrate concentration at which the rate is half of its maximum. B2: the “catalytic activity (kinase assay)” value in the series on poly(glu,tyr) [2] is “fully active”. Further, in the series with poly(glu,tyr) [3], the “Km of poly(glu,tyr)” value is 48 ± 2 µg/mL and the kcat was 0.667 ± 0.083 s⁻¹. In addition, the Km with poly(glu,tyr) [3] (read-out: Km of ATP) was 12 ± 1 µM.
